Source: patent US20240159758A1 (OPKO DIAGNOSTICS, published 2024)

Legend:
[1] = molecular target: T1, Intact prostate specific antigen (iPSA) (Homo sapiens (Human), UniProt P07288 25-261); assay: sandwich (noncompetitive) DELFIA immunoassay, capture probe
T1 construct: also called Intact PSA
Protocol: (§1) The concentrations of tPSA and fPSA are determined with commercial assays approved for use in human diagnostics by the FDA (Roche™ Cobas® instrument and Elecsys® assays). The concentrations of iPSA and hK2 are determined using a test developed to run on the PerkinElmer® AutoDELFIA® instrument.
(§2) The presence of iPSA and hK2 are detected by a sandwich (noncompetitive) immunoassay. The iPSA assay employs two distinct mouse monoclonal antibody products. The capture probe is a biotinylated, recombinant His₆-Cys-tagged Fab fragment of the monoclonal antibody 5A10 with specificity for fPSA (of which iPSA is a component). The tracer is a Europium-labelled monoclonal antibody 4D4, with specificity to iPSA and complexed PSA (PSA-ACT). In combination, the reagents are specific for iPSA. The hK2 assay employs five distinct mouse monoclonal antibody products. The capture probe is a biotinylated, F(ab)₂ fragment of 6H10 monoclonal antibody with specificity for hK2 and tPSA. […]
(§3) The signals obtained from the detection of iPSA and hK2 in the immunoassays are then compared to the signals obtained from the detection of a set of standards (e.g. the calibrator solutions) using the same iPSA and hK2 antibodies. […] The reporting range is defined by the limit of quantification (LoQ) at the low end and the highest calibrator at the high end. For the iPSA and hK2 assays, the LoQ was determined using CLSI EP-17A.

[2] = molecular target: T2, Free prostate specific antigen (fPSA) (Homo sapiens (Human), UniProt P07288 25-261); assay: as above
T2 construct: also called Free PSA
Protocol: as §1, §2, §3

T2 sequence (P07288 25-261 limits assumed): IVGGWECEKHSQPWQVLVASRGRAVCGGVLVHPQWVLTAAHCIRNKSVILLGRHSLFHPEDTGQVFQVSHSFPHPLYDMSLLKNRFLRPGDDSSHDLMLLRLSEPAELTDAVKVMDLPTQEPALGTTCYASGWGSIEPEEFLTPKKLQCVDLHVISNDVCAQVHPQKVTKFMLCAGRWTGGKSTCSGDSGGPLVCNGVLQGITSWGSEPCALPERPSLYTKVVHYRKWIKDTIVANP
T1 sequence (P07288 25-261 limits assumed): as above

binding result [1]: binds
binding result [2]: binds
B1: biotinylated, recombinant His6-Cys-tagged Fab fragment of the monoclonal antibody 5A10 (Fab, V domains shown)
VH: EVQLVESGPGILQPSQTLSLTCSFSGFSLSTTGMGVSWIRQPSGKGLEWLAHLYWDEDKRYNPSLKSRLTISEDSSRNQVFLKITSVGPADSATYYCARKGYYGYFDYWGQGTALTVSS
VL: DIVMTQSQKFMSTSVGDRVSVTCKASQNVNTDVAWYQQKPGQSPKALIFSTSYRSSGVPDRFTGSGSGTDFTLTITNVQSEDLAEYFCQQYSNYPLTFGAGTKVDLN
modifications: biotinylated (site not stated)
notes: Mouse monoclonal origin; also called Fab 5A10; 5A10 Fab
